From the supplement of paper PMC9732359
± gives the uncertainty stated by the source.

Experiment: protein stability index of a GFP-peptide fusion (yeast GPS) (PSI 1-4); higher = more stable; sorted into four equal gates, so the index is relative within each strain
How it was run: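 Each library plasmid carries Cherry plus GFP with a tiled 17-residue yeast protein peptide fused downstream, and the pooled library was carried in yeast. Mid-log cultures in leucine-free medium were sorted into four equal gates by GFP/Cherry ratio. Reads from Illumina sequencing of PCR-amplified plasmids from each gate were assigned to strains by barcodes. Per peptide, the protein stability index was computed as the summed products of gate read frequency and gate number.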

Row | Sequence | protein stability index (doa10∆) | protein stability index (pdr5∆) | protein stability index (san1∆) | protein stability index (ubr1∆)
1 | SEYMVFGKLAFPTRLGQ [YJL039C/NUP192] | 3.01 ± 0.073 | 2.52 ± 0.062 | 2.75 ± 0.067 | 2.15 ± 0.059
2 | EIKKWTAVAFWSWDIAV [HRT1] | 1.23 ± 0.076 | 1.7 ± 0.073 | 1.65 ± 0.11 | 1.36 ± 0.044
3 | NPIANHTVTNSPNPTLQ [SNF5] | 2.64 ± 0.038 | 2.83 ± 0.046 | 2.65 ± 0.038 | 2.65 ± 0.03
4 | NFEAALFAKSSSKKEYM [GAL11] | 1.99 ± 0.085 | 2.52 ± 0.084 | 2.17 ± 0.1 | 2.67 ± 0.058
5 | IRLAKTLKKNNVAVDII [RPN10] | 2.73 ± 0.085 | 2.85 ± 0.095 | 2.92 ± 0.12 | 2.56 ± 0.075
6 | LTKAAIVQIDATPFRQW [RPS8A] | 2.132 ± 0.016 | 2.453 ± 0.017 | 2.347 ± 0.021 | 2.362 ± 0.014
7 | DEFPELKEPVEDIIKRT [NUT2] | 3.5 ± 0.066 | 3.36 ± 0.07 | 3.31 ± 0.045 | 3.36 ± 0.048
8 | TLNNIFRFDSIQRETLL [GRR1] | 2.88 ± 0.075 | 2.59 ± 0.081 | 2.75 ± 0.052 | 3.1 ± 0.04
9 | KRTICKKCHRLLWTPKK [RPR2] | 2.42 ± 0.051 | 2.45 ± 0.05 | 2.81 ± 0.048 | 2.26 ± 0.037
10 | ELEHLTKKSKLESTKAE [DSN1] | 3.37 ± 0.1 | 3.08 ± 0.081 | 3.32 ± 0.095 | 3.13 ± 0.063
11 | RSLCEVLVYDDKLEKVT [RPC34] | 2.32 ± 0.09 | 2.62 ± 0.1 | 2.33 ± 0.1 | 2.84 ± 0.093
12 | NNLSSMNLDFDIEEGPI [MCD1] | 2.91 ± 0.046 | 3.15 ± 0.042 | 3.21 ± 0.037 | 3.19 ± 0.032
13 | DINTIKLQLSFVLQMVG [SRP72] | 1.26 ± 0.092 | 1.88 ± 0.066 | 1.32 ± 0.11 | 1.57 ± 0.062
14 | PPEVTSSNCHVRQKIKT [POP1] | 3.05 ± 0.071 | 3.1 ± 0.072 | 2.78 ± 0.073 | 3.01 ± 0.045
15 | TDAYLDQYLWYEADQRK [PRP8] | 3.18 ± 0.12 | 3.21 ± 0.17 | 3.02 ± 0.18 | 3.12 ± 0.081
16 | SVNIAFAISMGYLFKVS [ECM29] | 2.21 ± 0.14 | 2.84 ± 0.13 | 2.83 ± 0.093 | 3.22 ± 0.13
17 | NFSGLNGGITNTATNAL [YOR098C/NUP1] | 3.15 ± 0.12 | 2.91 ± 0.13 | 2.84 ± 0.084 | 3.34 ± 0.11
18 | SKVTKKHGAKKVAKRTK [RPL27B] | 3.42 ± 0.27 | 3.02 ± 0.2 | 3.27 ± 0.2 | 3.26 ± 0.22
19 | DGIGGLTEQIRELREVI [RPT4] | – | 3.65 ± 0.28 | – | –
20 | LIVDVKQQGVGLPTDAY [RPN8] | 2.07 ± 0.25 | 2.77 ± 0.25 | 1.28 ± 0.26 | –
21 | LRYVKQIEGPFLIIVPK [ISW2] | 2.15 ± 0.081 | 2.3 ± 0.059 | 2.29 ± 0.065 | 2.34 ± 0.045
22 | WVLHRDLKPANIMVTID [SSN3] | 1.28 ± 0.18 | 1.98 ± 0.14 | – | 2.48 ± 0.14
23 | HETTFMTAMRLMLKKLK [YML031W/NDC1] | 1.21 ± 0.097 | 2.56 ± 0.094 | 2.42 ± 0.1 | 2.5 ± 0.069
24 | ASQPEPTTNEPAKPALS [YJL041W/NSP1] | 2.81 ± 0.097 | 3.14 ± 0.077 | 2.92 ± 0.059 | 3.12 ± 0.06
25 | EKPAVKSYASLLAQLNG [RPT3] | 2.8 ± 0.082 | 2.6 ± 0.097 | 2.81 ± 0.082 | 2.76 ± 0.057
26 | MDALYEKIWFAISKENL [SIR3] | 2.21 ± 0.06 | 1.95 ± 0.052 | 1.51 ± 0.088 | 1.27 ± 0.047

Row | Sequence | protein stability index (doa10∆) | protein stability index (pdr5∆) | protein stability index (san1∆) | protein stability index (ubr1∆)
27 | GQIITLFSSRRLQAKRL [RMP1] | 2.78 ± 0.078 | 2.76 ± 0.052 | 2.89 ± 0.051 | 2.65 ± 0.064
28 | KRLADGLSVTQKVFVRS [DIS3] | 1.85 ± 0.077 | 2.38 ± 0.076 | 1.93 ± 0.12 | 1.93 ± 0.06
29 | HKQVYPLRMETIPILES [DSN1] | 1.73 ± 0.049 | 2.37 ± 0.05 | 2.24 ± 0.066 | 2.14 ± 0.038
30 | ELQKIWQIEEAGNSQIT [SRB5] | 2.77 ± 0.08 | 3.04 ± 0.11 | 3.08 ± 0.048 | 3.05 ± 0.066
31 | YPPMPFDGFLFGSRVMI [FAS1] | 2.64 ± 0.075 | 2.75 ± 0.071 | 2.53 ± 0.11 | 2.54 ± 0.048
32 | TTLNIKVEKRVLGLTIL [SMB1] | 1.86 ± 0.075 | 2.79 ± 0.093 | 2.39 ± 0.14 | 2.27 ± 0.08
33 | PSSSDSNGPRAAKKRRP [RRP6] | 3.08 ± 0.11 | 3.29 ± 0.085 | 3.28 ± 0.063 | 3.3 ± 0.062
34 | ELSKEEKERLESLTKEI [SMC3] | 3.01 ± 0.13 | 3.13 ± 0.15 | 3 ± 0.059 | 3.17 ± 0.077
35 | ADVLYKTAFKPHELTES [QCR2] | 3.11 ± 0.062 | 3.17 ± 0.059 | 2.98 ± 0.051 | 3.15 ± 0.045
36 | PIYYQKLKHMVLDKMHA [RET1] | 1.58 ± 0.076 | 2.03 ± 0.088 | 1.62 ± 0.094 | 1.77 ± 0.063
37 | TSAHEAIRADPAFKPTE [RPL5] | 3.24 ± 0.15 | 3.17 ± 0.14 | 3.11 ± 0.089 | 3.33 ± 0.11
38 | SVRRSGALDVEGLCIVA [RRP45] | 2.47 ± 0.15 | 3.06 ± 0.11 | 3 ± 0.11 | 2.83 ± 0.18
39 | LQRHSGISSTLVSANND [YLR018C/POM34] | 2.7 ± 0.052 | 2.87 ± 0.064 | 2.96 ± 0.062 | 2.94 ± 0.07
40 | RSNQYQRGKMHGLKQLR [NUT2] | 2.67 ± 0.1 | 2.91 ± 0.078 | 1.48 ± 0.28 | 1.74 ± 0.076
41 | ITISIHGKPTKGSSLAS [SSN8] | 2.24 ± 0.17 | 2.39 ± 0.086 | 2.43 ± 0.079 | 2.58 ± 0.041
42 | CKLTLDINVELFPVAAQ [RPB8] | 2.57 ± 0.063 | 2.24 ± 0.079 | 2.43 ± 0.078 | 2.96 ± 0.05
43 | VNDFSDITSDQLLQRLN [SMC3] | 2.56 ± 0.055 | 2.24 ± 0.053 | 2.41 ± 0.083 | 2.6 ± 0.04
44 | VFNNGIVVLVPKFGVEG [DIS3] | 2.22 ± 0.073 | 2.24 ± 0.072 | 2.27 ± 0.074 | 2.32 ± 0.053
45 | VTVSIKSRIVKVVGPRG [RPL9A] | 2.08 ± 0.051 | 2.63 ± 0.048 | 2.47 ± 0.052 | 2.75 ± 0.032
46 | KLTGDDQKFGVPVRSFK [ASC1] | 2.36 ± 0.16 | 3.16 ± 0.12 | 2.77 ± 0.1 | 3 ± 0.1
47 | EEFRNLAALNVWYGLSD [SSN2] | 3.37 ± 0.14 | 2.8 ± 0.13 | 2.39 ± 0.12 | 2.94 ± 0.074
48 | SLNPALQEKISTELNNK [SWI1] | 2.8 ± 0.11 | 3.05 ± 0.097 | 3.29 ± 0.069 | 3.27 ± 0.083
49 | NVKEEETVAKSKNAERK [RPS8A] | 3.07 ± 0.038 | 3.09 ± 0.035 | 3.215 ± 0.022 | 3.001 ± 0.029
50 | HIVYSLLVNPDIDLETY [YML103C/NUP188] | 2.52 ± 0.049 | 2.34 ± 0.042 | 2.52 ± 0.062 | 2.45 ± 0.035
51 | FSFGKPFFSSNTSSLQS [YIL149C/MLP2] | 2.95 ± 0.054 | 3.07 ± 0.052 | 2.86 ± 0.046 | 2.926 ± 0.028
